From patent US20120034160A1 (AbbVie / Abbott, published 2012)

T1: Recombinant Human IL-17 (human, UniProt Q16552 20-155, limits assumed)
T1 construct: bought reagent
T1 sequence (looked up): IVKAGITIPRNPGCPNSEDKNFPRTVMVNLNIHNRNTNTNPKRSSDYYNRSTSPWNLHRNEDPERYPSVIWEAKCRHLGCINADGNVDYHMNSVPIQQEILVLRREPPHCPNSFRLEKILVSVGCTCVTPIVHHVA


Assays:
[1] = target: T2, Recombinant Human IL-1β (human, UniProt P01584 117-269); assay: Biacore SPR; C-terminal VD
T2 construct: bought reagent; also called IL-1B
Protocol: (§1) The BIACORE assay (Biacore, Inc, Piscataway, N.J.) determines the affinity of antibodies or DVD-Ig with kinetic measurements of on-rate and off-rate constants. Binding of antibodies or DVD-Ig to a target antigen (for example, a purified recombinant target antigen) was determined by surface plasmon resonance-based measurements with a Biacore® 1000 or 3000 instrument (Biacore® AB, Uppsala, Sweden) using running HBS-EP (10 mM HEPES [pH 7.4], 150 mM NaCl, 3 mM EDTA, and 0.005% surfactant P20) at 25° C. All chemicals were obtained from Biacore® AB (Uppsala, Sweden) or otherwise from a different source as described in the text. For example, approximately 5000 RU of goat anti-mouse IgG, (Fcγ), fragment specific polyclonal antibody (Pierce Biotechnology Inc, Rockford, Ill.) diluted in 10 mM sodium acetate (pH 4.5) was directly immobilized across a CM5 research grade biosensor chip using a standard amine coupling kit according to manufacturer's instructions and procedures at 25 μg/ml. Unreacted moieties on the biosensor surface were blocked with ethanolamine. Modified carboxymethyl dextran surface in flowcell 2 and 4 was used as a reaction surface. Unmodified carboxymethyl dextran without goat anti-mouse IgG in flow cell 1 and 3 was used as the reference surface. For kinetic analysis, rate equations derived from the 1:1 Langmuir binding model were fitted simultaneously to association and dissociation phases of all eight injections (using global fit analysis) with the use of Biaevaluation 4.0.1 software. Purified antibodies or DVD-Ig were diluted in HEPES-buffered saline for capture across goat anti-mouse IgG specific reaction surfaces. Antibodies or DVD-Ig to be captured as a ligand (25 μg/ml) were injected over reaction matrices at a flow rate of 5 μl/min. The association and dissociation rate constants, kₒₙ (M⁻¹s⁻¹) and koff (s⁻¹) were determined under a continuous flow rate of 25 μl/min. Rate constants were derived by making kinetic binding measurements at different antigen concentrations ranging from 10−200 nM. The equilibrium dissociation constant (M) of the reaction between antibodies or DVD-Igs and the target antigen was then calculated from the kinetic rate constants by the following formula: KD=koff/kₒₙ. Binding was recorded as a function of time and kinetic rate constants are calculated.

[2] = target: T1, Recombinant Human IL-17; assay: Biacore SPR; N-terminal VD
Protocol: as §1

| Binder | Kd [1] [pM] | koff [1] [s⁻¹] | kon [1] [M⁻¹ s⁻¹] | Kd [2] [pM] | koff [2] [s⁻¹] | kon [2] [M⁻¹ s⁻¹] |
| --- | --- | --- | --- | --- | --- | --- |
| DVD1263 (bispecific antibody, human IgG1, kappa, V1 wt hIgG1, V2 kappa; also called DVD1263H; DVD1263L) heavy: not shown light: DIQMTQSPSSLSASVGDRVTITCRASSGIISYIDWFQQKPGKAPKRLIYATFDLASGVPSRFSGSGSGTDYTLTISSLQPEDFATYYCRQVGSYPETFGQGTKLEIKRTVAAPDIQMTQSPSSLSASVGDRVTITCRASGNIHNYLTWYQQTPGKAPKLLIYNAKTLADGVPSRFSGSGSGTDYTFTISSLQPEDIATYYCQHFWSIPYTFGQGTKLQITRTVAAPSVFIFPPSDEQLKSGTASVVCLLNNFYPREAKVQWKVDNALQSGNSQESVTEQDSKDSTYSLSSTLTLSKADYEKHKVYACEVTHQGLSSPVTKSFNRGEC | 170 | 0.00015 | 890000 | 61 | 7.8e-06 | 130000 |
| DVD1277 (bispecific antibody, human IgG1, kappa, DVD-Ig, outer AB274, inner AB270, linker set 1; V1 wt hIgG1, V2 kappa; also called DVD1277H; DVD1277L) heavy: not shown light: EIVLTQSPDFQSVTPKEKVTITCRASQDIGSELHWYQQKPDQPPKLLIKYASHSTSGVPSRFSGSGSGTDFTLTINGLEAEDAGTYYCHQTDSLPYTFGPGTKVDIKRTVAAPDTQVTQSPSSLSASVGDRVTITCITSTDIDVDMNWYQQKPGKPPKLLISQGNTLRPGVPSRFSSSGSGTDFTFTISSLQPEDFATYYCLQSDNLPLTFGQGTKLEIKRTVAAPSVFIFPPSDEQLKSGTASVVCLLNNFYPREAKVQWKVDNALQSGNSQESVTEQDSKDSTYSLSSTLTLSKADYEKHKVYACEVTHQGLSSPVTKSFNRGEC | 2100 | 0.00049 | 230000 | 160 | 2.2e-05 | 130000 |
| DVD1281 (bispecific antibody, human IgG1, kappa, DVD-Ig, outer AB274, inner AB272, linker set 1; V1 wt hIgG1, V2 kappa; also called DVD1281H; DVD1281L) heavy: not shown light: EIVLTQSPDFQSVTPKEKVTITCRASQDIGSELHWYQQKPDQPPKLLIKYASHSTSGVPSRFSGSGSGTDFTLTINGLEAEDAGTYYCHQTDSLPYTFGPGTKVDIKRTVAAPETTVTQSPSSLSASVGDRVTITCITSTDIDVDMNWYQQKPGKPPKLLISQGNTLRPGVPSRFSSSGSGTDFTFTISSLQPEDFATYYCLQSDNLPLTFGQGTKLEIKRTVAAPSVFIFPPSDEQLKSGTASVVCLLNNFYPREAKVQWKVDNALQSGNSQESVTEQDSKDSTYSLSSTLTLSKADYEKHKVYACEVTHQGLSSPVTKSFNRGEC | 2000 | 0.00058 | 280000 | 100 | 2e-05 | 200000 |
| DVD1271 (bispecific antibody, human IgG1, kappa, DVD-Ig, outer AB273, inner AB272, linker set 1; V1 wt hIgG1, V2 kappa; also called DVD1271H; DVD1271L) heavy: not shown light: DIQMTQSPSSLSASVGDRVTITCRASSGIISYIDWFQQKPGKAPKRLIYATFDLASGVPSRFSGSGSGTDYTLTISSLQPEDFATYYCRQVGSYPETFGQGTKLEIKRTVAAPETTVTQSPSSLSASVGDRVTITCITSTDIDVDMNWYQQKPGKPPKLLISQGNTLRPGVPSRFSSSGSGTDFTFTISSLQPEDFATYYCLQSDNLPLTFGQGTKLEIKRTVAAPSVFIFPPSDEQLKSGTASVVCLLNNFYPREAKVQWKVDNALQSGNSQESVTEQDSKDSTYSLSSTLTLSKADYEKHKVYACEVTHQGLSSPVTKSFNRGEC | 2200 | 0.00071 | 320000 | 110 | 1.2e-05 | 110000 |
| DVD1273 (bispecific antibody, human IgG1, kappa, V1 wt hIgG1, V2 kappa; also called DVD1273H; DVD1273L) heavy: not shown light: EIVLTQSPDFQSVTPKEKVTITCRASQDIGSELHWYQQKPDQPPKLLIKYASHSTSGVPSRFSGSGSGTDFTLTINGLEAEDAGTYYCHQTDSLPYTFGPGTKVDIKRTVAAPDIQMTQSPSSLSASVGDRVTITCRASGNIHNYLTWYQQTPGKAPKLLIYNAKTLADGVPSRFSGSGSGTDYTFTISSLQPEDIATYYCQHFWSIPYTFGQGTKLQITRTVAAPSVFIFPPSDEQLKSGTASVVCLLNNFYPREAKVQWKVDNALQSGNSQESVTEQDSKDSTYSLSSTLTLSKADYEKHKVYACEVTHQGLSSPVTKSFNRGEC | 270 | 0.00019 | 690000 | 200 | 2.2e-05 | 110000 |

The remaining binders from weak to strong by Kd [1], led by results:

| Kd [1] [pM] | koff [1] [s⁻¹] | kon [1] [M⁻¹ s⁻¹] | Kd [2] [pM] | koff [2] [s⁻¹] | kon [2] [M⁻¹ s⁻¹] | Binder |
| --- | --- | --- | --- | --- | --- | --- |
| 1400 | 0.00045 | 320000 | 120 | 2.3e-05 | 190000 | DVD1279 (bispecific antibody, human IgG1, kappa, DVD-Ig, outer AB274, inner AB271, linker set 1; V1 wt hIgG1, V2 kappa; also called DVD1279H; DVD1279L) heavy: not shown light: EIVLTQSPDFQSVTPKEKVTITCRASQDIGSELHWYQQKPDQPPKLLIKYASHSTSGVPSRFSGSGSGTDFTLTINGLEAEDAGTYYCHQTDSLPYTFGPGTKVDIKRTVAAPDTVVTQSPAFLSVTPGEKVTITCITSTDIDVDMNWYQQKPDQPPKLLISQGNTLRPGVPSRFSSSGSGTDFTFTISSLEAEDAATYYCLQSDNLPLTFGQGTKLEIKRTVAAPSVFIFPPSDEQLKSGTASVVCLLNNFYPREAKVQWKVDNALQSGNSQESVTEQDSKDSTYSLSSTLTLSKADYEKHKVYACEVTHQGLSSPVTKSFNRGEC |
| 1100 | 0.00043 | 400000 | 32 | 5e-06 | 160000 | DVD1269 (bispecific antibody, human IgG1, kappa, DVD-Ig, outer AB273, inner AB271, linker set 1; V1 wt hIgG1, V2 kappa; also called DVD1269H; DVD1269L) heavy: not shown light: DIQMTQSPSSLSASVGDRVTITCRASSGIISYIDWFQQKPGKAPKRLIYATFDLASGVPSRFSGSGSGTDYTLTISSLQPEDFATYYCRQVGSYPETFGQGTKLEIKRTVAAPDTVVTQSPAFLSVTPGEKVTITCITSTDIDVDMNWYQQKPDQPPKLLISQGNTLRPGVPSRFSSSGSGTDFTFTISSLEAEDAATYYCLQSDNLPLTFGQGTKLEIKRTVAAPSVFIFPPSDEQLKSGTASVVCLLNNFYPREAKVQWKVDNALQSGNSQESVTEQDSKDSTYSLSSTLTLSKADYEKHKVYACEVTHQGLSSPVTKSFNRGEC |
| 1100 | 0.00041 | 370000 | ≤ 66 | ≤ 1e-05 | 150000 | DVD1267 (bispecific antibody, human IgG1, kappa, DVD-Ig, outer AB273, inner AB270, linker set 1; V1 wt hIgG1, V2 kappa; also called DVD1267H; DVD1267L) heavy: not shown light: DIQMTQSPSSLSASVGDRVTITCRASSGIISYIDWFQQKPGKAPKRLIYATFDLASGVPSRFSGSGSGTDYTLTISSLQPEDFATYYCRQVGSYPETFGQGTKLEIKRTVAAPDTQVTQSPSSLSASVGDRVTITCITSTDIDVDMNWYQQKPGKPPKLLISQGNTLRPGVPSRFSSSGSGTDFTFTISSLQPEDFATYYCLQSDNLPLTFGQGTKLEIKRTVAAPSVFIFPPSDEQLKSGTASVVCLLNNFYPREAKVQWKVDNALQSGNSQESVTEQDSKDSTYSLSSTLTLSKADYEKHKVYACEVTHQGLSSPVTKSFNRGEC |
| 150 | 0.00011 | 760000 | 150 | 2.1e-05 | 140000 | DVD1275 (bispecific antibody, human IgG1, kappa, V1 wt hIgG1, V2 kappa; also called DVD1275H; DVD1275L) heavy: not shown light: EIVLTQSPDFQSVTPKEKVTITCRASQDIGSELHWYQQKPDQPPKLLIKYASHSTSGVPSRFSGSGSGTDFTLTINGLEAEDAGTYYCHQTDSLPYTFGPGTKVDIKRTVAAPDIQMTQSPSSLSASVGDRVTITCRASGNIHNYLTWYQQTPGKAPKLLIYNAKTLADGVPSRFSGSGSGTDYTFTISSLQPEDIATYYCQHFWSIPYTFGQGTKLQITRTVAAPSVFIFPPSDEQLKSGTASVVCLLNNFYPREAKVQWKVDNALQSGNSQESVTEQDSKDSTYSLSSTLTLSKADYEKHKVYACEVTHQGLSSPVTKSFNRGEC |
| 100 | 0.00026 | 2.5e+06 | 460 | 5.8e-05 | 130000 | DVD1283 (bispecific antibody, human IgG1, kappa, V1 wt hIgG1, V2 kappa; also called DVD1283H; DVD1283L) heavy: not shown light: EIVLTQSPDFQSVTPKEKVTITCRASQNIGSELHWYQQKPDQSPKLLIKYASHSISGVPSRFSGSGSGTDFTLTINGLEAEDAATYYCHQSDTLPHTFGQGTKVDIKRTVAAPDIQMTQSPSSLSASVGDRVTITCRASGNIHNYLTWYQQTPGKAPKLLIYNAKTLADGVPSRFSGSGSGTDYTFTISSLQPEDIATYYCQHFWSIPYTFGQGTKLQITRTVAAPSVFIFPPSDEQLKSGTASVVCLLNNFYPREAKVQWKVDNALQSGNSQESVTEQDSKDSTYSLSSTLTLSKADYEKHKVYACEVTHQGLSSPVTKSFNRGEC |
| 88 | 0.0003 | 3.4e+06 | 96 | 1.1e-05 | 120000 | DVD1265 (bispecific antibody, human IgG1, kappa, V1 wt hIgG1, V2 kappa; also called DVD1265H; DVD1265L) heavy: not shown light: DIQMTQSPSSLSASVGDRVTITCRASSGIISYIDWFQQKPGKAPKRLIYATFDLASGVPSRFSGSGSGTDYTLTISSLQPEDFATYYCRQVGSYPETFGQGTKLEIKRTVAAPDIQMTQSPSSLSASVGDRVTITCRASGNIHNYLTWYQQTPGKAPKLLIYNAKTLADGVPSRFSGSGSGTDYTFTISSLQPEDIATYYCQHFWSIPYTFGQGTKLQITRTVAAPSVFIFPPSDEQLKSGTASVVCLLNNFYPREAKVQWKVDNALQSGNSQESVTEQDSKDSTYSLSSTLTLSKADYEKHKVYACEVTHQGLSSPVTKSFNRGEC |
